{"source": "patent US20110027235", "key": {"[1]": {"test_system": "ZFN 16234 (OCT4 pair 3, L) (synthetic)", "assay": "cell_activity", "details": "ZFN pair 3 with 16233, 2.5 ug, BG01 hESC; only 2 clones; 0% at 10 ug (1 clone); labelled pair 2 in Table 3"}, "[2]": {"test_system": "ZFN 16233 (OCT4 pair 3, R) (synthetic)", "assay": "cell_activity", "details": "ZFN pair 3 with 16234, 2.5 ug, BG01 hESC; only 2 clones; 0% at 10 ug (1 clone); labelled pair 2 in Table 3"}}, "data": [{"sequence": "CCCAGGAGAGGAGCAGGCAGGGTCAGCT (double strand) [OCT4 target of 16234]", "values": [{"measurement": "activity (% targeting efficiency)", "setting": "[1]", "value": 50}]}, {"sequence": "GCCAGGTCTGGGCAGCTGCAGGTGACCA (double strand) [OCT4 target of 16233]", "values": [{"measurement": "activity (% targeting efficiency)", "setting": "[2]", "value": 50}]}]}
